Experimental findings from US5237051A (Vanderbilt University, priority 1990, dated 1993) are described below.

The assay addresses T1, GC-C (Rattus norvegicus, UniProt P23897).
T1 construct: expressed in transfected cells; host or cells: COS-7
T1 sequence (P23897 23-1072): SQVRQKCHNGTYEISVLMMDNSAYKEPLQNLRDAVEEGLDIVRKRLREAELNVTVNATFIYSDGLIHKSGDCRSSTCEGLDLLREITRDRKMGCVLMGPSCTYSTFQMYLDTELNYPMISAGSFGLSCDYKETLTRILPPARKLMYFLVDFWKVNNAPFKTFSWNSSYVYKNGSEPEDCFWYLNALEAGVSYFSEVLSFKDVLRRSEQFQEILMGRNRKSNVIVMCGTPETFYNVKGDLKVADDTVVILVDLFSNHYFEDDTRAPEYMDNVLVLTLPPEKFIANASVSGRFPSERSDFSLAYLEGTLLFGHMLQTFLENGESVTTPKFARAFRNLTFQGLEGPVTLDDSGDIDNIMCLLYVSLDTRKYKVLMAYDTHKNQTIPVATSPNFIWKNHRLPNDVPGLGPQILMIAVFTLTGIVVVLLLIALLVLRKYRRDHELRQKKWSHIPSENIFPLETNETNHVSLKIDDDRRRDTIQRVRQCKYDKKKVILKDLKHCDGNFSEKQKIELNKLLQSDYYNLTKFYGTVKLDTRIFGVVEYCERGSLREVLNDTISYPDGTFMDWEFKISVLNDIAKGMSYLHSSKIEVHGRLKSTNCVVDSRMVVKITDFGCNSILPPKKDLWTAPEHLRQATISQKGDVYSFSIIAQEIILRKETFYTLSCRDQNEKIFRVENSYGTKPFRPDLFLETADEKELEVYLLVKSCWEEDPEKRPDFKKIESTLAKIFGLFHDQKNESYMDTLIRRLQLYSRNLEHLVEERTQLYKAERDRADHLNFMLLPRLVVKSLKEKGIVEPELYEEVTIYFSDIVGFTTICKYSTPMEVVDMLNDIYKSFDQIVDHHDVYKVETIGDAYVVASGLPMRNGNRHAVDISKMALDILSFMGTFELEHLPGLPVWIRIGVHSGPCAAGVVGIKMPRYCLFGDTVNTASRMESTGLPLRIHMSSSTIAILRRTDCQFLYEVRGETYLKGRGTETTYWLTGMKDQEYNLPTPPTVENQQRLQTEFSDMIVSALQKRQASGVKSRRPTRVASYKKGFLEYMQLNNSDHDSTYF
Type of assay: cell-based.
Turning to C-type natriuretic peptide, the “cyclic GMP levels after stimulation of transfected cells (in words)” value is recorded as “did not increase cyclic GMP levels above background” and the “stimulation of GC-C (in words)” value is listed as “failed to stimulate”.
Taken in the same sequence, the figures for atrial natriuretic peptide were “did not increase cyclic GMP levels above background” and “failed to stimulate”.
The corresponding values for brain natriuretic peptide are “did not increase cyclic GMP levels above background” and “failed to stimulate”.
